Data reported in patent US6960343B2, “Toll/interleukin-1 receptor adapter protein (TIRAP)” (Yale University School of Medicine, priority 2001, dated 2005).

Experiments:
[1] = molecular target: T1, CD4/TLR4 (constitutively active form of TLR4) (UniProt O00206+P06332); experiment: CD4/TLR4-mediated NF-κB activation, luciferase reporter, 293T cells; format: cell-based; settings: 50 ng, 250 ng, 1.0 μg construct
T1 construct: CD4 (fusion partner of the chimera); expressed in transfected cells; host or cells: 293T cells
T1 sequence (P06332+O00206 with tags, fused parts or gaps): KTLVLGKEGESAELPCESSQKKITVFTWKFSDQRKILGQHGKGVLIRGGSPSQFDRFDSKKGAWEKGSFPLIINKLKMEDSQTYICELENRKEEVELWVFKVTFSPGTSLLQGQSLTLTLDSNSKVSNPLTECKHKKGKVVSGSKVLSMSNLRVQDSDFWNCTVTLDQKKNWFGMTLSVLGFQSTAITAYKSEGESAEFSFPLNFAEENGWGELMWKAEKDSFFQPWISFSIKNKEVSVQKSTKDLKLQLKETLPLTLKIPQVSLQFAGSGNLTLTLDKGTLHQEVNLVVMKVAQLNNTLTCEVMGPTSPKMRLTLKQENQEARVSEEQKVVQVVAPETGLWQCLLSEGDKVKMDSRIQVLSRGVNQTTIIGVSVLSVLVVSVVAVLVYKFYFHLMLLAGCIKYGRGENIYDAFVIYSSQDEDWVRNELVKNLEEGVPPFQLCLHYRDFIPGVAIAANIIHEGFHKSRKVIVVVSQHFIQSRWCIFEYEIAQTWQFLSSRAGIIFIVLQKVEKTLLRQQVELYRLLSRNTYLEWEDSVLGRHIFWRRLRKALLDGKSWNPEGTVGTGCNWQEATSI
Experimental: To determine whether TIRAP P125H functions as a dominant negative, 293T cells were transfected with 0.25 μg of vector alone (pcDNA3) or CD4/TLR4 (a vector expressing a constitutively active form of TLR4) with or without increasing concentrations (50 ng, 250 ng, 1.0 μg) of either TIRAP P125H or MyD88 DN (a vector expressing MyD88 containing a proline to histidine mutation at the same position as TIRAP P125H) and the NF-κB-dependent luciferase reporter gene.

TLR4 = molecular target: T2, TLR4 (Homo sapiens, UniProt O00206); experiment: Co-immunoprecipitation with Myc-tagged TLR4 in 293T cells; format: binding; settings: 293T cell lysates, anti-Flag immunoprecipitation
T2 construct: a Myc-tagged TLR4 deletion construct lacking the ectodomain (Myc TLR4 wt); Myc; expressed in transfected cells; host or cells: 293T cells
T2 sequence (O00206 653-839 limits assumed): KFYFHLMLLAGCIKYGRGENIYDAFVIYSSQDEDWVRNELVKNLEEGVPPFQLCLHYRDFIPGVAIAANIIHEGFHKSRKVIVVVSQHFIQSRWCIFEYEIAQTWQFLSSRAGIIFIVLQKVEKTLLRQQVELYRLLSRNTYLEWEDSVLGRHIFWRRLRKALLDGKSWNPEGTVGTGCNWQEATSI
From the text: Cells were transfected in the presence (+) or absence (−) of constructs encoding a wild-type portion of TLR4 (TLR4 wt), a mutant derivative thereof (TLR4 mut), wild-type TIRAP (TIRAP), a mutant TIRAP containing a P125H mutation (TIRAP PH), or wild-type MyD88 (MyD88), wherein each construct further encodes a Myc, Flag, or hemaglutanin (HA) tag, as indicated. Antibodies used for immunoprecipitation (IP) or immunoblot (IB) are indicated to the left of each blot.
To obtain biochemical conformation for a role of TIRAP in the TLR4 signaling pathway, TIRAP-TLR4 protein interactions were evaluated using co-immunoprecipitation experiments. 293T cells were co-transfected with 4.5 μg of a Myc-tagged TLR4 deletion construct lacking the ectodomain (Myc TLR4 wt) or its mutant derivative (Myc TLR4 P714H) in the presence or absence of 1.5 μg of Flag-tagged TIRAP (Flag TIRAP) or its mutant derivative containing the P125H mutation (Flag TIRAP PH). […] Immunocomplexes were washed, separated by SDS-PAGE electrophoresis, and then analyzed by immunoblotting with either anti-myc antibody to look for co-immunoprecipitated TLR4 or anti-Flag antibody to confirm immunoprecipitation of Flag TIRAP or Flag TIRAP P125H. Total cell lysates (35 μg/sample) were likewise analyzed by SDS-PAGE and immunoblotting to confirm equivalent expression of the appropriate proteins in every sample. […]

## TIRAP P125H: vector encoding a mutant form of TIRAP containing a proline to histidine mutation at amino acid position 125
[1]
  inhibition of NF-κB activation mediated by CD4/TLR4: strongly inhibited
TLR4
  co-immunoprecipitation with TLR4: filed to co-immunoprecipitate
